What is called Kd is the constant that tells how readily two partners part at equilibrium. High values mean a looser complex, low ones a tighter complex.

Primed or numbered codes have the meaning given here. [ ]: non-standard residue; d: D form. PEG11′ = not defined here

The source of these data is patent publication US20240209041A1 (SRI INTERNATIONAL, published 2024).

This test deals with purified EphA2 (UniProt P29317 25-534, limits assumed). Briefly: binding to purified EphA2; method not stated.
Chain of purified EphA2 (P29317 25-534 limits assumed): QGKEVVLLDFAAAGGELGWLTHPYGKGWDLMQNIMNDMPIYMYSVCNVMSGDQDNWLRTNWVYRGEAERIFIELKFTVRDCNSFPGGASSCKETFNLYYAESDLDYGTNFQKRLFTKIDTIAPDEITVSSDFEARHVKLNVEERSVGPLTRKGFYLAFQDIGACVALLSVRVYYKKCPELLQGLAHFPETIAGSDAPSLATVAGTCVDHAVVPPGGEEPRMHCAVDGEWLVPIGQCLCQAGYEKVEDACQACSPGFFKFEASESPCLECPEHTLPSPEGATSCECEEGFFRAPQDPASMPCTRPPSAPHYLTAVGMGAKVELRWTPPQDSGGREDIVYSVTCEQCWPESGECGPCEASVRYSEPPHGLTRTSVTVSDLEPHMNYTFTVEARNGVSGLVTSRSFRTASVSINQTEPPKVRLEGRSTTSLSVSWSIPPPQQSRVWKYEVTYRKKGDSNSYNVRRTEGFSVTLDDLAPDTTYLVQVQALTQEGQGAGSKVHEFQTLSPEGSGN

B1: MGS_H1299.2 V4 (peptide)
peptide: Ac-YAAWPASGAWT[PEG11′]C-NH2
notes: Optimized MGS peptide from phage display (parent H1299.2); also called MGS_1299.2 V4
B1 came in with a Kd of 3.2 nM.
